Data from patent CN116444667A (SHANGHAI IASO BIOTECH CO LTD, dated 2023).

T1: Biotinylated Human GDF15 Protein (Primary Amine Labeling), KACTUS, GDF-HM215B (human, UniProt Q99988 197-308, biotinylated (primary amine labeling))
T1 construct: Bought protein; also called human GDF15-bio-hFc; humanGDF15-bio-hFc; not shown: hFc tag
T1 sequence (looked up): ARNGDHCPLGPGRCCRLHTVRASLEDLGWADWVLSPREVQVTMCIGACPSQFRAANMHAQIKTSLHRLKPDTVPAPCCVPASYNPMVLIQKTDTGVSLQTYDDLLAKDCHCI

T2: Biotinylated CD39 Protein, hFc Tag, KACTUS, CD9-HM239B (UniProt P49961 38-478, biotinylated)
T2 construct: Control antigen; also called CD39-bio-hFc; 负淘选抗原; not shown: hFc tag
T2 sequence (looked up): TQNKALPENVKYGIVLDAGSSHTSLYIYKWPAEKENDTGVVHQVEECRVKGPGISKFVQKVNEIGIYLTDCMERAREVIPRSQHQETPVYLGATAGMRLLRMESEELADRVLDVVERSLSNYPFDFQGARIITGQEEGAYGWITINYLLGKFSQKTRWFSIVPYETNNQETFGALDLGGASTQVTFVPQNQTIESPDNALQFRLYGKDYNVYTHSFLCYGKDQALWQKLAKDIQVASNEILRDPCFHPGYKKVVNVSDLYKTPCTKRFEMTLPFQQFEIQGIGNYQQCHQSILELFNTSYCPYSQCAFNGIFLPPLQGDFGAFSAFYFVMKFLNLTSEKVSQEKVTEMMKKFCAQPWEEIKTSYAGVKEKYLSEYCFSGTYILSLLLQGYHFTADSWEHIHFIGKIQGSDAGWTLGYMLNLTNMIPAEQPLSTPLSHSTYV

T3: Human Latent GDF-2/BMP-9 Protein, His tag, Acro, GD2-H52H3 (human, UniProt Q9UK05 23-429)
T3 construct: Bought protein, latent form; not shown: His tag
T3 sequence (looked up): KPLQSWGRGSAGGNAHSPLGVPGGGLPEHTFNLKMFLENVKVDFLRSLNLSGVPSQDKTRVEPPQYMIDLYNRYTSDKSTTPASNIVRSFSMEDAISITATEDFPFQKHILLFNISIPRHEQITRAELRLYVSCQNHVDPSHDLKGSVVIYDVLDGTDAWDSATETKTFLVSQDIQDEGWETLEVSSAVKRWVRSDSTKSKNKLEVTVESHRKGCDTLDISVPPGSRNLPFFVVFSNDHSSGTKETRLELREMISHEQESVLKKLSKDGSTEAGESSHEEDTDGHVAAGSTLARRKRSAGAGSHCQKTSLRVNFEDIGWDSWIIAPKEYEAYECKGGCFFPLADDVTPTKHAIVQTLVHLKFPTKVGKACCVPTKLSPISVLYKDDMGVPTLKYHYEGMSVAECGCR

T4: GDF15 hFc tag, KACTUS, GDF-HM215 (UniProt Q99988 197-308)
T4 construct: also called GDF15蛋白; not shown: hFc tag
T4 sequence (looked up): T1 sequence (looked up)

B1: Clone 68 (噬菌体单克隆) (other)
VH: QVQLVQSGAEVKKPGASVKVSCKASGYTFTNYGINWVRQAPGQGLEWMGWISAYNGYTDYAQKLQGRVSMTTDTSTSTVYMELRSLRSDDTAVYYCARDDAINGGDYWGQGTLVTVSS
VL: not shown
B2: Clone 68 抗GDF15 IgG (human IgG4) (Fc fusion)
chain: QVQLVQSGAEVKKPGASVKVSCKASGYTFTNYGINWVRQAPGQGLEWMGWISAYNGYTDYAQKLQGRVSMTTDTSTSTVYMELRSLRSDDTAVYYCARDDAINGGDYWGQGTLVTVSSTSGGGGSGGGGSGGGGSELSYVLTQPPSASGTPGQRVTISCSGSSSNIGINTVNWYQQLPGTAPKLLIYINNQRPSGVPDRFSGSKSGTSASLAISGLQSEDEADYYCAAWDDSLNAYVFGSGTKVTVL
notes: also called GDF15 mAb; not shown: human IgG4 Fc

Experiments:
[1] = target: T1, Biotinylated Human GDF15 Protein …; experiment: phage ELISA
[2] = target: T2, Biotinylated CD39 Protein, hFc Tag, …; experiment: phage ELISA
[3] = target: T3, Human Latent GDF-2/BMP-9 Protein, His …; experiment: phage ELISA
[4] = target: T5, Streptavidin (SA蛋白), Pierce, 21125 (UniProt P22629 37-163, limits assumed); experiment: phage ELISA
T5 construct: Control antigen in the specificity ELISA; also called Strepavidin
T5 sequence (P22629 37-163 limits assumed): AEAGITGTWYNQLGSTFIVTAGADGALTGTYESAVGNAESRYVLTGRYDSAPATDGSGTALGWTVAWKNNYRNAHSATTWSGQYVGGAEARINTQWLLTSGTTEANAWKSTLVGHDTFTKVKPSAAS

[5] = target: T4, GDF15 hFc tag, KACTUS, GDF-HM215; experiment: competition ELISA: GDF15 hFc coated, antibody titrated against GFRAL His tag (competitor), anti-His HRP

Binder	binding result [1]	binding result [2]	binding result [3]	binding result [4]	EC50 [5]
B1	binds	no binding	no binding	no binding	–
B2	–	–	–	–	1.4 nM
